Results on 3 molecules are retold here after patent US5688918, “p53as protein and antibody therefor” (Health Research, Inc.).

The target of data set [1] is p53as (Mus musculus) (UniProt P02340). Briefly: cell_activity.
In data set [2] the target is T1, p53 (UniProt P02340 P02340:1-390). Description: cell_activity.
The target of data set [3] is T1, p53. Briefly: cell_activity; CAT reporter, mouse (10)1 cells. Conditions: tags: none; pCMVp53r; chain copies: 4. As for the experimental part: Spontaneously arising immortalized murine BALB/c embryo fibroblast (10) 1 is a p53 negative cell line which was transfected with 2 μg pSV-β-gal plasmid (Promegal), 3 μg 50-2 plasmid (Dr. Levine) which contains 2 copies of a 50 bp sequence corresponding to p53 binding site in muscle creatinine kinase promoter-enhancer upstream of a basic CAT reporter plasmid, and 5 μg pCMVp53as, pCMVp53r or pCMV vector control. Transfection was done using the calcium phosphate method. The cells were harvested 48 hors post transfection and lysed by three freeze-thaw cycles. The supernatant was assayed for CAT activity using diffusion.

Setting [4] is: CAT reporter, human Saos-2 cells.
Where [5] appears, read: luciferase reporter, mouse (10)1 cells.

T1 sequence (P02340 whole entry, the tested form may be a part, one chain of several): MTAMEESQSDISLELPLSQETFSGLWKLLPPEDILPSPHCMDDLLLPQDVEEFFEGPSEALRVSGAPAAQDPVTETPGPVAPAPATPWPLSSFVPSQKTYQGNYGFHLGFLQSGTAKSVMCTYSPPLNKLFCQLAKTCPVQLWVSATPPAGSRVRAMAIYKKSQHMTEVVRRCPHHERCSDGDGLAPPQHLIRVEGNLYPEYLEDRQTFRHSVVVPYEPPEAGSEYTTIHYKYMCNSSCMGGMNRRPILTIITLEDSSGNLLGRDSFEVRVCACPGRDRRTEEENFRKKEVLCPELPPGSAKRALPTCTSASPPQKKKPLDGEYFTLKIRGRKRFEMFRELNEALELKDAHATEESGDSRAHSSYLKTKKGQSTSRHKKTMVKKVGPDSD
Sequence of p53as (Mus musculus) (P02340 1-364): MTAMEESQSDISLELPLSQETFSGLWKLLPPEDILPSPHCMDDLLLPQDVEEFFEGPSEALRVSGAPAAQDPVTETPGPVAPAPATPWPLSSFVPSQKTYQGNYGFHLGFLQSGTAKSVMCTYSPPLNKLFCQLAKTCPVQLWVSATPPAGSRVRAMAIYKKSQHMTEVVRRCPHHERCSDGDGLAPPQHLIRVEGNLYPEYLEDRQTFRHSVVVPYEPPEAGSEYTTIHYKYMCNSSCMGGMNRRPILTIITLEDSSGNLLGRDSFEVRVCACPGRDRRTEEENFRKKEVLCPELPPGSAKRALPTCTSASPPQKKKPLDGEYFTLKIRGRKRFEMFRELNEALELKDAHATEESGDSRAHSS

In the case of PG13 (13 repeats of p53 binding site), the activity (fold activation) in data set [1] (setting [4]) was determined as 9; in data set [2] (setting [4]), 14.
Regarding WAF-1 promoter (WWP-1 luciferase), the activity (fold activation) in data set [1] (setting [5]) amounted to 14; in data set [2] (setting [5]) it was 15.

B1: muscle creatine kinase promoter-enhancer p53 site (50-2 reporter, 2 copies of 50 bp) (dsDNA)
DNA 1: TGGCAAGCCTATGACATGGCCGGGGCCTGCCTCTCTCTGCCTCTGACCCT
DNA 2: AGGGTCAGAGGCAGAGAGAGGCAGGCCCCGGCCATGTCATAGGCTTGCCA
On to B1, for which, in data set [3], the activity stood at 27 fold activation.
